From doi:10.1101/2025.09.14.676173

Experiments:
[1] = molecular target: S2P.BA5.VI-1147 A570C/N967C (I1) (SARS CoV-2 omicron BA.5); test: cross-linking
[2] = molecular target: S2P.BA5.VI-1147 D571C/N967C (D17) (SARS CoV-2 omicron BA.5); test: cross-linking

Substance	stoichiometry N [1]	stoichiometry N [2]
S2P.BA5.VI-1147 A570C/N967C (I1) (domain or fragment)	3	–
S2P.BA5.VI-1147 D571C/N967C (D17) (domain or fragment)	–	3
